From patent publication US9931433B2, “Time-controlled glucose releasing hydrogels and applications thereof” (Centre National de la Recherche Scientifique (CNRS), priority 2014, dated 2018)

Assay: Stability of the kit components after storage
Format: physicochemical
Details: 14 days storage
Text: The mechanical properties (storage and loss moduli G′ and G″) are identical at D0, D7 or D21 storage.
The activity of the enzyme AMG was preserved after 14 days storage allowing a long term storage of the kit components.

## glucan 1,4 α-glucosidase [AMG]
  activity of the enzyme after storage: preserved
